From patent EP2057188B1
Where “and” joins values, the source holds several entries; their conditions need not be identical. Equal values may be shown once. Read-outs that look alike come from different tables or passages of the source.

Experiments:
[1] = molecular target: T1, GIP Receptor (Rattus norvegicus (Rat)), P43219; experiment: GIP RBA, RIN
T1 chain: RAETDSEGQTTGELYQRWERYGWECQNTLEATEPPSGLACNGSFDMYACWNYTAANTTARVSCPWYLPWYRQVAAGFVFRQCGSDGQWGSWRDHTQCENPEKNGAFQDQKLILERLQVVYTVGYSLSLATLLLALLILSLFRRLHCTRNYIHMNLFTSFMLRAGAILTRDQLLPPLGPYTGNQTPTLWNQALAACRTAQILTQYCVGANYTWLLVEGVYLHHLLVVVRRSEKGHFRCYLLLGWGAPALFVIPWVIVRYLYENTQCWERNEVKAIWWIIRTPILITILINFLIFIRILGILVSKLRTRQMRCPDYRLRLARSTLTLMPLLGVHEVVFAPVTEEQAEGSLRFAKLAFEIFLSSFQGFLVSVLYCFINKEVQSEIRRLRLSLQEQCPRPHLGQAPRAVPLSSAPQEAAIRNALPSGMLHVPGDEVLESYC

[2] = molecular target: T1, GIP Receptor (Rattus norvegicus (Rat)), …; experiment: cell-based or functional assay
[3] = molecular target: T2, human GIP receptor (human), P48546; experiment: 125I-GIP displacement, HEK-GIPR
T2 chain: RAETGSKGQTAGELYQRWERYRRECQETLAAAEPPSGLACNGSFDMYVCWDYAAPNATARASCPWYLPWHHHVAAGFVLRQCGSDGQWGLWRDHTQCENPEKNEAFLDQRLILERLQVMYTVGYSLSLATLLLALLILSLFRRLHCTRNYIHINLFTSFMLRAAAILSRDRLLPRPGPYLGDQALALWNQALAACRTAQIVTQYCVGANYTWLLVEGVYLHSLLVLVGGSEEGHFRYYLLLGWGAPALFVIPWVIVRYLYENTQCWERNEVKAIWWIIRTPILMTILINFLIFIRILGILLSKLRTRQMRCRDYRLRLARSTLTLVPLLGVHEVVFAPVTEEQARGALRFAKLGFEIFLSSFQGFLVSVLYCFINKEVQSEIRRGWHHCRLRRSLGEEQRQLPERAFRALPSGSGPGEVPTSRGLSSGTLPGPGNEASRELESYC

[4] = molecular target: T2, human GIP receptor (human), P48546; experiment: 125I-GIP displacement, HEK-GIPR
[5] = molecular target: T2, human GIP receptor (human), P48546; experiment: 125I-GIP displacement, 10 nM analog, HEK-GIPR
[6] = molecular target: T1, GIP Receptor (Rattus norvegicus (Rat)), …; experiment: cell-based or functional assay
[7] = molecular target: T1, GIP Receptor (Rattus norvegicus (Rat)), …; experiment: GIP RBA

B1: 0601GIP4386 (peptide)
peptide: YSDGTFISDYSIAMDKIHQQDFVNWLLAQKPKKIRYS
modifications: not checked
IC50 [1]: 156 nM | GIPR Cyclase [2]: 56

B2: 0601GIP4233 (peptide)
peptide: YAEGTFISDYSIAMDKIHQQDFVNWLLAQKPKKIRYS
modifications: not checked
IC50 [3]: 0.21 nM | IC50 [4]: 0.12 nM and 0.41 nM | %Inh 10nM [5]: 89%

B3: 0601GIP4178 (peptide)
peptide: YAEGTFISDYSIAMDKIHQQDFVNWLLAQKPSSGAPPPS
modifications: not checked
Cyclase [2]: 96 | Cyclase [6]: 36.2 | IC50 [3]: 0.17 nM

B4: 0601GIP4252 (peptide)
peptide: YAEGTFISDYSIAMDKIHQQDFVNWLLAQKPSSGAPPPS
modifications: not checked
IC50 [7]: 5.6 nM | Cyclase [6]: 154
